Data published in the RNAGym collection of RNA variant scans (doi:10.7554/elife.90254).

B1: LINE1-full (parent)
chain: UACGUAGGUGGUUUUCCCCUGAUAGUGCUAAGGGGGCCUGGAAGUUUGGACUGGGCAGAGCUCAACACAGCGUGGCAAAGUGGCUGUGGCUAGACUGCCUCUCUGGAUUCCUCGUCACUCAGCAGGGCAUCUCUGAGAGAAAUGCC

Variants of: B1
Test: self-cleavage, relative activity (ratio to wild type); higher = more cleavage; in vitro, sequencing; the parent is a self-cleaving ribozyme

Variant | self-cleavage
G35A U45A | 1.28
C38U A69G | 0.49
G35A U96C | 0.09
C38A A69G | 0.61
G36A A142G | 1.09
G35A A141G | 1.39
U39C A77U | 0.96
G35U C110U | 1.51
C38G U52A | 1.04
G36A A57U | 0.12
G36A A57G | 1.52
U39C A64U | 0.35
U39A A124G | 0.97
U39A U81A | 2.08
G35U C113U | 1.09
U39A G60A | 0.05
G34U A138G | 1.56
G34U A138U | 1.19
C37U A136U | 1.49
U39A U130A | 1.38
C38A A121U | 1.42
U39C A65G | 0.09
G35U U134C | 1.12
G34U A117G | 2

Variant | self-cleavage
G34U U109C | 1.52
G36A C116U | 1.41
C37A A64U | 0.35
C37G U96G | 0.07
U39C A50G | 0.77
G35U A124U | 1.41
C37U U45C | 1.02
G36C U81C | 0.9
G35A A77U | 0.8
G35A A77G | 1.92
C37U A121G | 1.62
G35A U104C | 1.42
G36U U52A | 0.64
G35A A67G | 0.22
U39A U143C | 1.42
G35A U115A | 1.17
G35A U115C | 1.03
G36A A64G | 0.13
C38G A138U | 1.31
G36C G74U | 1.21
C37G U87C | 0.2
U39A G114U | 1.15
U39A G114A | 1.19
G34U U91A | 0.49

Variant | self-cleavage
G34U U91C | 0.51
C38A A140G | 1.28
G35A A124G | 0.61
G36U | 1.35
G36C | 1.07
G36A | 1.16
U39A A77G | 2.32
G35U G127A | 1.22
C38A U109C | 1
G36A A94G | 0.34
C38A A136G | 0.7
U39A U112C | 1.38
G34U U47C | 2.18
U39A G53U | 1.63
G35U U100C | 1.85
C37U U52C | 1.13
C37U U52G | 0.88
U39A U104C | 1.57
C38A A141U | 1.49
U39A G106A | 1.35
C37G U45A | 0.85
C37U A79C | 1.22
G34C U47A | 0.64
G34C U47C | 1.79

Variant | self-cleavage
G34U A79G | 0.55
G36C A117G | 1.51
C37A U143C | 0.75
U39A A69G | 0.55
U39A A69U | 0.04
U39A C120U | 1.56
C38U U45C | 1.39
C37U C56U | 0.11
C37U A140U | 1.14
C37U A140G | 0.26
C37G U130G | 0.68
G36U A94G | 0.12
G36C U87C | 0.25
C38U A117G | 2.38
C37U A67U | 0.08
G35C U96C | 0.26
U39A U115C | 1.31
U39A U115A | 1.42
C38U A43G | 0.81
G36A A121G | 1.1
C37U U130A | 0.99
C37G A142G | 1.25
C38U A136U | 1.08
G35C U47C | 1.84

Variant | self-cleavage
U39C A124U | 1.26
C37A A142G | 1.24
U39A U108C | 1.24
C37G U102A | 0.9
C37G U102C | 1.19
G36C A140G | 1.12
G35U U143A | 1.56
G34U A141G | 1.56
G36U A107G | 0.9
G35A U130C | 0.96
C37G A65G | 0
G36A A59U | 0.67
C37U A107G | 1.07
C37U U112A | 1.07
U39A A107G | 1.42
U39A A107U | 1.43
C38A U52C | 0.99
G36C U47A | 0.89
G35A A79U | 1.72
U39A U52C | 1.72
C37U A142G | 1.52
U39A C63U | 0.43
G35C U132C | 1.53
G35U A67G | 0.35

Variant | self-cleavage
U39A U134C | 1.3
G36A U100C | 2.05
G34U U39A | 1.89
U39A G74A | 0.88
G34U G48A | 1.49
G36A U81A | 2.04
G36A U81G | 1.08
U39C A57U | 0.06
U39A U46C | 1.5
U39A A138G | 1.27
U39A A138U | 1.75
C38A U132C | 1.02
C37G | 1.13
C37A | 1.04
C37U | 1.23
U39C A42U | 0.73
C37A U96C | 0.08
U39A A142C | 1.59
G35U A43G | 1.93
U39A A65G | 0.05
U39A A65U | 0.15
C37A C90U | 0.04
G34U U132C | 1.51
C37G U52C | 0.75

Variant | self-cleavage
G35A U62A | 0.05
G35A U62C | 0.03
C37U U143A | 1.14
G36U U119A | 1.4
C37A U100C | 1.56
C37A U100A | 0.93
G35C U119C | 1.98
U39C A59G | 0.04
U39C A59U | 0.61
U39C A69G | 0.39
C37G A59G | 0.07
C37G A59U | 0.84
C38U C110A | 1.64
U39C A121U | 1.04
U39C A121G | 1.67
U39C A121C | 1.37
C38U U46A | 1.28
U39A C103U | 1.74
G35A A92G | 0.02
C38A U143G | 1.43
C37A A129G | 1.22
G34U U104A | 1.53
G36U U108C | 1.62
C37U G88A | 0.04

Variant | self-cleavage
G36A U73A | 1.84
G36U U45C | 1.13
G34U | 1.43
U39A A94G | 0.36
G35A A129U | 1.62
C37A C95A | 0.01
U39A U132C | 1.38
U39A | 1.34
U39C | 1.14
G36A A136G | 1.43
C37G U112C | 0.28
G36C G55A | 0.13
G35A A136U | 1.1
C38U G60A | 0.05
G34U U119C | 1.7
G34C U62A | 0.04
U39C A79U | 1.2
U39A A67G | 0.43
U39A A67U | 0.07
C37U U115C | 1.67
U39C A78U | 1.42
C37G U119C | 1.46
U39A U100C | 1.67
U39C A94G | 0.11

Variant | self-cleavage
G35A U39C | 0.53
G35A U100A | 0.31
G35A A43G | 0.71
G35A C95A | 0.07
G34U U85G | 0.09
C38U C95U | 0.21
G36C U102C | 1.08
G35A U134G | 0.47
G35A U134C | 0.92
G35C U134A | 0.71
C38U U96A | 0.04
C38U U96C | 0.17
C38A U115C | 1.14
C37A A94U | 0.23
C37A A94C | 0.06
G35U U104A | 1.31
G34U U52A | 1.22
U39A G89A | 0.06
C37A U108C | 1.51
G35A U73C | 1.19
U39A G105U | 1.23
G36A A50U | 1.16
G36A C63U | 0.36
G34U U96G | 0

Variant | self-cleavage
U39A U96G | 0.14
U39A U96A | 0.04
U39A U96C | 0.19
G35C U85C | 0.22
G35U U52A | 0.51
U39A A59G | 0.08
U39A A59U | 1.19
G36U U73A | 0.46
U39C A92U | 0.58
U39C A92G | 0.09
G36A U102C | 1.14
C38G U73A | 1.76
U39A A140U | 1.23
G35A G125U | 1.03
C38U U39A | 1.09
C37A A92C | 0.2
G34U A77G | 2.2
C37U C113U | 0.42
U39A A78G | 1.38
U39A A78U | 1.98
U39A A92G | 0.1
U39A A92U | 0.57
C37G U143C | 1.38
C38U U47C | 0.93

Variant | self-cleavage
G36C A107G | 2.05
C37U U96A | 0.04
G35A U87A | 0.08
U39A A57G | 0.87
U39A A57U | 0.12
C37A U47A | 1.12
G34U U81C | 2.12
G34U A65G | 0.02
C38A U104C | 0.82
G34U A64G | 0.36
C37A U130C | 1.39
G34C G82A | 2.16
C38U U62A | 0.02
C38U U62C | 0
C38U U134C | 1.14
C38U U130C | 1.46
G35U A94G | 0.19
U39A U47A | 0.93
C37G U62C | 0.12
U39A A43U | 1.39
G36A U39A | 1.3
C37U U109A | 1.24
G35C A59G | 0.19
G36U U143C | 1.16

Variant | self-cleavage
G36A U85A | 0.04
G36C U104C | 1.87
G36C U52A | 0.45
G36A A78G | 1.32
C37G A138G | 0.8
C37G G60A | 0.06
G36C A64C | 0.35
G34U U143G | 1.01
G36C U143A | 0.7
U39A G72A | 1.81
G35A A121U | 0.97
G35A A138G | 1.22
C37U U39C | 1.26
C37U U39A | 1.12
U39A U87C | 0.22
G36U U62A | 0.03
G35A G86A | 0.05
C37G A79G | 0.85
G34U U73G | 0.99
G34U U73A | 2.36
G35U A140U | 1.19
G35U A140G | 1.21
C37U C146U | 1.27
C37G U47C | 0.71

Variant | self-cleavage
C37G U47A | 1.11
G35A U52A | 0.86
U39A G122A | 0.54
G34U C116U | 1.46
U39C A129G | 1.61
U39C A129U | 1.05
C37U U85C | 0.19
C38U G41U | 1.21
G36A U45G | 0.92
G35A C76U | 2.14
U39A A129G | 1.27
U39A A129U | 1.65
C37U A138G | 1.2
G35A G105A | 1.15
G35U G75C | 0.77
G34C U39C | 1.65
G34U A43U | 0.97
G34U A43G | 1.06
G36U U134C | 1.99
U39A U91C | 0.43
G36A A138G | 1.53
G36A U62G | 0.01
G35A U108C | 1.11
G35U U87C | 0.14

Variant | self-cleavage
C37G A94G | 0.32
G36A A140G | 1.3
C37G A67U | 0.12
G34U A129G | 1.98
C37U A43G | 1.32
C38U U115A | 1.46
C38U U115C | 1.6
U39A U102A | 1.62
U39C A117U | 1.49
U39C A117G | 1.37
C37U U91C | 0.27
G34U A107U | 1.96
G35C A67G | 0.22
C38U A138G | 0.83
G35U A78U | 2.1
G34U U134C | 1.57
G34U U134A | 1.04
U39C A107G | 1.36
C38A U130C | 1.41
U39A A117G | 1.39
G36A U108A | 1.23
G36A U108C | 1.37
